Reference: patent publication US20250228937A1, “MEDICAMENT FOR TREATMENT AND/OR PREVENTION OF CANCER” (TORAY INDUSTRIES, INC., priority 2021, published 2025)
Residue numbers refer to the chain shown, from its start. Values belong to the molecule of their own block, whether it stands above or below them.

Columns and labels:
[1] = test system: human breast cancer cells BT474; assay: In vivo antitumor effect of anti-CAPRIN-1 antibody and topotecan in BT474 cancer-bearing mice; design: species or system NOD-SCID mice; conditions: day 56 after bearing cancer; for tumor volume, assuming that the tumor volume of the negative control was 100%: topotecan alone, four times
Experimental: An in vivo antitumor effect in a cancer-bearing mouse by a combined use of the anti-CAPRIN-1 antibody (anti-CAPRIN-1 humanized antibody #1) produced in Example 1 and topotecan was evaluated.
Specifically, the antitumor effect of the combined use of the anti-CAPRIN-1 antibody and topotecan according to the present invention was studied using NOD-SCID mice in which human-derived cancer cells expressing CAPRIN-1 protein were subcutaneously transplanted. Human breast cancer cells BT474 were subcutaneously transplanted at 2×10^7 cells per mouse as a mixture with Matrigel (Sigma) and allowed to grow until a tumor became approximately 154 to 155 mm^3 to prepare cancer-bearing mice. The cancer cells BT474 express CAPRIN-1 protein on cell membrane surfaces, and the anti-CAPRIN-1 antibodies produced in Example 1 were confirmed to react with a portion of CAPRIN-1 present on the cell membrane surfaces. Each anti-CAPRIN-1 antibody produced in Example 1 was administered at 10 mg/kg once a week, four times in total, to the tail veins of eight cancer-bearing mice described above. To the same mice, a low dose (3 mg/kg) or a high dose (10 mg/kg) of topotecan was administered once every four days, four times in total.
For a comparative control group, the same dose of the same anti-CAPRIN-1 antibody as above was administered once a week to cancer-bearing mice. Furthermore, for another comparative control group, a low dose (3 mg/kg) or a high dose (10 mg/kg) of topotecan was administered to other cancer-bearing mouse individuals at the same administration intervals. Cancer-bearing mice in a non-treatment group were used as negative controls. After the start of administration, the sizes of cancers in the cancer-bearing mice were measured over time using calipers. The tumor volume of each individual was calculated according to a standard method using a calculation formula: (Length of the major axis of the tumor)×(Length of the minor axis of the tumor)^2×0.5, and the average of the treated group was calculated.

[2] = platinum-insensitive patient, cited from earlier work
[3] = target: T1, human CAPRIN-1 protein expressed on cell membrane surfaces of human cancer cells (human, UniProt Q14444 2-709); assay: flow cytometry on cancer cells expressing CAPRIN-1
T1 construct: whole, on cells; only a portion of CAPRIN-1 is said to be on the membrane surface
T1 sequence (looked up): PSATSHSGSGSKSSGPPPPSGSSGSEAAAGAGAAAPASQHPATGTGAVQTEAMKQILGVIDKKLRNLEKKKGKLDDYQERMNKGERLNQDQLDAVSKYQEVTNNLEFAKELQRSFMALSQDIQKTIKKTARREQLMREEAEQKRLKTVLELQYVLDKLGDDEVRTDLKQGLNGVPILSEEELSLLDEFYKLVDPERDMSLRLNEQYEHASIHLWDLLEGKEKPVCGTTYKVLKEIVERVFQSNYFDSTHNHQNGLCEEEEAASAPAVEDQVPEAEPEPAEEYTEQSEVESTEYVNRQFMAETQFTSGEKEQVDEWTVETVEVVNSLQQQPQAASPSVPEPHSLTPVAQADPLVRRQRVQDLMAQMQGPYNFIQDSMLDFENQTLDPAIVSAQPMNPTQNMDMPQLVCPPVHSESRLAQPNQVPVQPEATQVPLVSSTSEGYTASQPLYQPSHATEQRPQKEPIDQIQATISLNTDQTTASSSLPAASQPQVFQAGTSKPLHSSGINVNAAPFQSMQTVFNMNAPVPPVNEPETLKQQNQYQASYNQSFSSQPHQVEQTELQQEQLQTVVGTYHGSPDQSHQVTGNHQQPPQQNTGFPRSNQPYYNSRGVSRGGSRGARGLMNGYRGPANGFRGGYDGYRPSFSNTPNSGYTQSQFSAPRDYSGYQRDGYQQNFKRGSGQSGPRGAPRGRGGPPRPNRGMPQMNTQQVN

Molecule: CC[C@@]1(O)C(=O)OCc2c1cc1n(c2=O)Cc2cc3c(CN(C)C)c(O)ccc3nc2-1 [topotecan]
tumor volume compared to that at the start of the administration ([1]; antibody 10 mg/kg, topotecan low (3 mg/kg) and high (10 mg/kg) dose): increased
tumor volume, assuming that the tumor volume of the negative control was 100% ([1]; high dose 10 mg/kg once every four days): 16%
tumor volume, assuming that the tumor volume of the negative control was 100% ([1]; low dose 3 mg/kg once every four days): 33%

Molecule: bevacizumab
PFS ([2]; bevacizumab combined with a chemotherapeutic versus monochemotherapy): 6.7 months
OS compared with monochemotherapy ([2]; bevacizumab combined with a chemotherapeutic): no significant difference

B1: anti-CAPRIN-1 antibody (i) (antibody, V domains shown)
VH: GAELVRSGASVKMSCKASGYSFTDYNMYWVKQTPGQGLEWIGYIYPGNGGTNYNQKFKGKATLTADTSSSTAYMQISSLTSEDSAVYFCARDYDDGGYAMDYWGQGTTVTVSS
VL: DIQMTQSPASLSASVGETVTITCRASGNIHNYLTWYQQKQGKSPQLLVYNAKTLADGVPSRFSGSGSGTQYSLKINRLQPEDFGSYYCQHFWNIPWTFGGGTKLNSR
binding result [3]: binds

B2: anti-CAPRIN-1 antibody (z) (antibody, V domains shown)
VH: GPDLVKPGASVKISCKASGYSFTAYYMHWVKQSHGKSLEWIGRVNPNNGGTTYNQKFKGKAILTVDKSSSTAYMELRSLTFEDSAVYYCARRIYYGYFDYWGQGTTVTVSS
VL: AFFAVSLGQRATISCKASQSVDYDGDSYMNWYQQKPGQPPKLLIYVASNLESGVPARFSGSGSGTDFTLNIHPVEEEDAATYYCQQSNEDPYTFGGGTKLEIKQ
binding result [3]: binds

B3: anti-CAPRIN-1 antibody (a) (antibody, V domains shown)
VH: AVTLDESGGGLQMSRGGLSLVCKASGFDFSSYQMNWIRQAPGKGLEFVAAINKFGNSTGHGAAVKGRVTISRDNGQSTVRLQLNNLRAEDTAIYFCTKHAYGYCGSGTWCAAGEIDAWGHGTEVIVSS
VL: QAASTQPSSVSANPGETVEITCSGGGSYSYGWFQQKSPGSAPVTVIYYNNKRPSDIPSRFSGSKSGSTGTLTITGVQADDEAVYYCGSGDSTDTAVFGAGTTLTVLG
binding result [3]: binds

B4: anti-CAPRIN-1 antibody (af) (antibody, V domains shown)
VH: EVQLVESGGGLVQPGGSLRLSCAASGFSLSSHSLGWVRQAPGKGLEWIGDIRSGGSAYYANWAKGRFTISRDNSKNTLYLQMNSLRAEDTAVYYCTRTNGPSDLTNRLDLWGQGTLVTVSS
VL: QVLTQSPSSLSASVGDRVTINCQASQSLYNNENLAWFQQKPGKVPKRLIYGASTLASGVSSRFSGSGSGTEFTLTISSLQCEDFAIYYCLGEFSCGSADCFAFGGGTKVEIK
binding result [3]: binds

B5: anti-CAPRIN-1 antibody (ah) (antibody, V domains shown)
VH: B4 VH
VL: EQVLTQSPSSLSASVGDRVTINCQASQSLYNNENLAWFQQKPGKVPKRLIYGASTLASGVSSRFSGSGSGTEFTLTISNLQPEDFAIYYCLGEFSCGSADCFAFGGGTKVEIK
binding result [3]: binds

B6: anti-CAPRIN-1 antibody (ak) (antibody, V domains shown)
VH: B4 VH with Y94F
VL: B5 VL
binding result [3]: binds

B7: anti-CAPRIN-1 antibody (ag) (antibody, V domains shown)
VH: B4 VH with Y94F
VL: B4 VL
binding result [3]: binds

B8: anti-CAPRIN-1 antibody (ai) (antibody, V domains shown)
VH: B4 VH with Y94F
VL: B5 VL with Q2I, I87T
binding result [3]: binds

Other lines, results leading:

binding result [3]: binds
B9: anti-CAPRIN-1 antibody (aj) (antibody, V domains shown)
VH: B4 VH
VL: B5 VL with Q2I, I87T

binding result [3]: binds
B10: anti-CAPRIN-1 antibody (b) (antibody, V domains shown)
VH: B4 VH with V2Q, Q3S
VL: B4 VL

binding result [3]: binds
B11: anti-CAPRIN-1 antibody (o) (antibody, V domains shown)
VH: EVQLHQFGAELVKPGASVKISCKASGYTFTDYNMDWVKQSHGKSLEWIGDINPNYDSTSYNQKFKGKATLTVDKSSSTAYMELRSLTSEDTAVYYCARSRSYDYEGFAYWGQGTLVTVSA
VL: DIQMTQSPASLSASVGETVTITCRASGNIHNYLAWYQQKQGKSPQLLVYNAKTLADGVPSRFSGSGSGTQYSLKINSLQPEDFGSYYCQHFWSTLTFGAGTKLELKR

binding result [3]: binds
B12: anti-CAPRIN-1 antibody (c) (antibody, V domains shown)
VH: AVTLDESGGGLQTPGGGLSLVCKASGFTFSSFDMGWVRQAPGKGLEFVAQINDAGSRTWYATAVKGRATISRDNGQTTVRLQLNNLRAEDTGTYYCTRGSGYVGAGAIDAWGHGTEVIVS
VL: AALTQPSSVSANPGETVKITCSGGSGYYGWYQQQKSPGSAPVTVIYQNDKRPSDIPSRFSGSGSGSTNTLTITGVQAEDEAVYFCGRYDSTDSGIFGAGTTLTVL

binding result [3]: binds
B13: anti-CAPRIN-1 antibody (e) (antibody, V domains shown)
VH: AVTLDESGGGLQTPGGALSLVCKASGFTFSGYDMLWVRQAPGKGLEWVAGIGSTGGGTDYGAAVKGRATISRDNGQSTVRLQLNNLRAEDTATYYCAKVAGGCNSGYCRDSPGSIDAWGHGTEVIVS
VL: AVTQQPASVSANPGETVKITCSGGGSRNYYGWYQQKSPGSVPVTVIYYDDQRPSNIPSRFSGALSGSTSTLTITGVQADDEAVYFCGSADSNTYEGSFGAGTTLTVL

binding result [3]: binds
B14: anti-CAPRIN-1 antibody (j) (antibody, V domains shown)
VH: DAELVKPGASVKISCKASGYTFTDHSIHWVQQKPEQGLEWIGYISPGNGNIKYNEKFKGKATLTADKSSSTAYMQLNSLTSEDSAVYFCKRSLGRGGPYYFDYWGQGTTVTVSS
VL: DIVLTQAAPSLPVTPGESVSISCRSSKSLLHSNGNTYLYWFLQRPGQSPQLLIYRMSNLASGVPDRFSGSGSGTAFTLRISRVEAEDVGVYYCMQHREYPVTFGSGPN

binding result [3]: binds
B15: anti-CAPRIN-1 antibody (d) (antibody, V domains shown)
VH: QSLEESGGDLVKPGASLTLTCTASGFSFSGSYYMSWVRQAPGKGLEWIAYIYIGDGVTAYANWAKGRFTISKASSTTVTLQMTSLTAADTATYFCARGNKLWGPGTLVTVSS
VL: DVVMTQTPASVEAAVGGTVTIKCQASQSISSYLAWYQQKPGQPPKRLIYDASNLDSGVPSRFKGSGSGTDFTITISDLECADAATYYCQCTAVSSATIYGNAFGGGTEVVVK
